27 molecules from patent publication US20240018502A1 can be followed below.

Numbering of substitutions follows the chain as printed. Numbers in names are those of the source.

To fix the notation:
B1: MTSP-1 Q38H/I41S/D60bT/F60eS/Y60gW/D96K/F97D/ins97aA/T98P/F99L/C122S/G151N/Q175L/Q192D (enzyme)
chain: VVGGTDADEGEWPWQVSLHALGHGHSCGASLISPNWLVSAAHCYIDTRGSRWSDPTQWTAFLGLHDQSQRSAPGVQERRLKRIISHPFFNKDAPLDYDIALLELEKPAEYSSMVRPISLPDASHVFPAGKAIWVTGWGHTQYGGTNALILQKGEIRVINQTTCENLLPQLITPRMMCVGFLSGGVDSCDGDSGGPLSSVEADGRIFQAGVVSWGDGCAQRNKPGVYTRLPLFRDWIKENTGV
B2: MTSP-1 Q38H/I41S/D60bT/F60eS/Y60gW/F97G/ins97aV/T98P/F99L/C122S/G151H/Q175L/Q192D (enzyme)
chain: B1 chain with K91D, D92G, A93V, N146H
B3: MTSP-1 protease domain F97R/ins97aT/T98V/C122S/Q175M/Q192T/D217S (enzyme)
chain: VVGGTDADEGEWPWQVSLHALGQGHICGASLISPNWLVSAAHCYIDDRGFRYSDPTQWTAFLGLHDQSQRSAPGVQERRLKRIISHPFFNDRTVFDYDIALLELEKPAEYSSMVRPISLPDASHVFPAGKAIWVTGWGHTQYGGTGALILQKGEIRVINQTTCENLLPQMITPRMMCVGFLSGGVDSCTGDSGGPLSSVEADGRIFQAGVVSWGSGCAQRNKPGVYTRLPLFRDWIKENTGV
B4: MTSP-1 protease domain F97S/ins97aN/T98G/F99M/C122S/Q175T/Q192T/D217S (enzyme)
chain: B3 chain with R92S, T93N, V94G, F95M, M170T
B5: MTSP-1 protease domain F97L/ins97aM/T98N/F99L/C122S/Q175T/Q192T/D217S (enzyme)
chain: B3 chain with R92L, T93M, V94N, F95L, M170T
B6: MTSP-1 protease domain F97V/ins97aH/T98R/F99L/C122S/Q175R/Q192G/D217S (enzyme)
chain: B3 chain with R92V, T93H, V94R, F95L, M170R, T189G
B7: MTSP-1 protease domain I41G/F97A/F99L/C122S/G151H/Q175L/Q192G/D217L (enzyme)
chain: VVGGTDADEGEWPWQVSLHALGQGHGCGASLISPNWLVSAAHCYIDDRGFRYSDPTQWTAFLGLHDQSQRSAPGVQERRLKRIISHPFFNDATLDYDIALLELEKPAEYSSMVRPISLPDASHVFPAGKAIWVTGWGHTQYGGTHALILQKGEIRVINQTTCENLLPQLITPRMMCVGFLSGGVDSCGGDSGGPLSSVEADGRIFQAGVVSWGLGCAQRNKPGVYTRLPLFRDWIKENTGV
B8: MTSP-1 protease domain I41E/F97R/F99L/C122S/G151Q/Q175G/Q192T/D217V (enzyme)
chain: B7 chain with G26E, A92R, H145Q, L169G, G188T, L214V
B9: MTSP-1 protease domain I41G/F97S/F99L/C122S/G151T/Q175R/Q192A/D217Y (enzyme)
chain: B7 chain with A92S, H145T, L169R, G188A, L214Y
B10: MTSP-1 protease domain I41G/F97S/C122S/G151N/Q175I/Q192T/D217T (enzyme)
chain: B7 chain with A92S, L94F, H145N, L169I, G188T, L214T
B11: MTSP-1 protease domain I41E/F97V/F99L/C122S/G151N/Q175L/Q192S/D217H (enzyme)
chain: B7 chain with G26E, A92V, H145N, G188S, L214H
B12: MTSP-1 protease domain F97S/F99L/C122S/G151N/Q175I/Q192T/D217T (enzyme)
chain: B7 chain with G26I, A92S, H145N, L169I, G188T, L214T
B13: MTSP-1 protease domain I41G/F97S/F99L/C122S/G151N/Q175I/D217T (enzyme)
chain: B7 chain with A92S, H145N, L169I, G188Q, L214T
B14: MTSP-1 protease domain I41R/F97T/F99L/C122S/G151N/Q175T/Q192T/D217I (enzyme)
chain: B7 chain with G26R, A92T, H145N, L169T, G188T, L214I
B15: MTSP-1 protease domain I41G/F97S/F99L/C122S/G151N/Q175I/Q192T/D217T (enzyme)
chain: B7 chain with A92S, H145N, L169I, G188T, L214T
B16: MTSP-1 protease domain I41G/F97L/F99L/C122S/G151T/Q175M/Q192D/D217M (enzyme)
chain: B7 chain with A92L, H145T, L169M, G188D, L214M
B17: MTSP-1 protease domain F97Q/F99L/C122S/Q175N/Q192V/D217G (enzyme)
chain: B7 chain with G26I, A92Q, H145G, L169N, G188V, L214G
B18: MTSP-1 protease domain I41G/F99L/C122S/G151N/Q175I/Q192T/D217T (enzyme)
chain: B7 chain with A92F, H145N, L169I, G188T, L214T
B19: MTSP-1 protease domain I41G/F97S/F99L/C122S/Q175I/Q192T/D217T (enzyme)
chain: B7 chain with A92S, H145G, L169I, G188T, L214T
B20: MTSP-1 protease domain I41T/F97H/F99L/C122S/G151N/Q175H/Q192V/D217L (enzyme)
chain: B7 chain with G26T, A92H, H145N, L169H, G188V
B21: MTSP-1 protease domain I41R/F97A/F99L/C122S/G151N/Q175R/Q192G/D217Q (enzyme)
chain: B7 chain with G26R, H145N, L169R, L214Q
B22: MTSP-1 protease domain I41G/F97T/F99M/C122S/G151D/Q175T/Q192T/D217V (enzyme)
chain: B7 chain with A92T, L94M, H145D, L169T, G188T, L214V
B23: MTSP-1 protease domain I41G/F97L/F99L/C122S/G151N/Q175A/Q192V/D217R (enzyme)
chain: B7 chain with A92L, H145N, L169A, G188V, L214R
B24: MTSP-1 protease domain I41G/F97S/F99L/C122S/G151N/Q192T/D217T (enzyme)
chain: B7 chain with A92S, H145N, L169Q, G188T, L214T
B25: MTSP-1 protease domain I41G/F97S/F99L/C122S/G151N/Q175I/Q192T (enzyme)
chain: B7 chain with A92S, H145N, L169I, G188T, L214D
B26: MTSP-1 protease domain I41D/F97R/F99L/C122S/G151Q/Q175R/Q192V/D217L (enzyme)
chain: B7 chain with G26D, A92R, H145Q, L169R, G188V
B27: MTSP-1 protease domain I41S/F97E/F99L/C122S/G151N/Q175G/Q192R/D217A (enzyme)
chain: B7 chain with G26S, A92E, H145N, L169G, G188R, L214A

The target of the test is plasma purified human complement protein C3 (human) (UniProt P01024). Description: cell-based or functional assay.
Sequence of plasma purified human complement protein C3 (human) (P01024 23-667, chain 1 of 2): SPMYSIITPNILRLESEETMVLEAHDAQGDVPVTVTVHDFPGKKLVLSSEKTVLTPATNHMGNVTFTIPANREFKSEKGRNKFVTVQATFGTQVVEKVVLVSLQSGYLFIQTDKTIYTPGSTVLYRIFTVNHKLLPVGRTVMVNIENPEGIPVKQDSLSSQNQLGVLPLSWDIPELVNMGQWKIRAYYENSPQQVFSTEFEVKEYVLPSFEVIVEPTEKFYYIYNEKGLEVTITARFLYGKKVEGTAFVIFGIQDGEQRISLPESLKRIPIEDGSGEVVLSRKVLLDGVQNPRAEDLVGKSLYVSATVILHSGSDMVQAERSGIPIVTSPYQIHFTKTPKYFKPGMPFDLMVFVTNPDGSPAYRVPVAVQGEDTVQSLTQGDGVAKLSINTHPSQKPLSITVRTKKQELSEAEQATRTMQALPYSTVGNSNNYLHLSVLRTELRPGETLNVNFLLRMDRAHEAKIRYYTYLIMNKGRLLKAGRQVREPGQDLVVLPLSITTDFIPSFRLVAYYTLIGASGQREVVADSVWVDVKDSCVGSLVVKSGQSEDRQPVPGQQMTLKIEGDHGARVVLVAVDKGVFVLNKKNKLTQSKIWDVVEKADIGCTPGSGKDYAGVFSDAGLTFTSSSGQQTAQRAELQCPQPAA
Sequence of plasma purified human complement protein C3 (human) (P01024 672-1663, chain 2 of 2): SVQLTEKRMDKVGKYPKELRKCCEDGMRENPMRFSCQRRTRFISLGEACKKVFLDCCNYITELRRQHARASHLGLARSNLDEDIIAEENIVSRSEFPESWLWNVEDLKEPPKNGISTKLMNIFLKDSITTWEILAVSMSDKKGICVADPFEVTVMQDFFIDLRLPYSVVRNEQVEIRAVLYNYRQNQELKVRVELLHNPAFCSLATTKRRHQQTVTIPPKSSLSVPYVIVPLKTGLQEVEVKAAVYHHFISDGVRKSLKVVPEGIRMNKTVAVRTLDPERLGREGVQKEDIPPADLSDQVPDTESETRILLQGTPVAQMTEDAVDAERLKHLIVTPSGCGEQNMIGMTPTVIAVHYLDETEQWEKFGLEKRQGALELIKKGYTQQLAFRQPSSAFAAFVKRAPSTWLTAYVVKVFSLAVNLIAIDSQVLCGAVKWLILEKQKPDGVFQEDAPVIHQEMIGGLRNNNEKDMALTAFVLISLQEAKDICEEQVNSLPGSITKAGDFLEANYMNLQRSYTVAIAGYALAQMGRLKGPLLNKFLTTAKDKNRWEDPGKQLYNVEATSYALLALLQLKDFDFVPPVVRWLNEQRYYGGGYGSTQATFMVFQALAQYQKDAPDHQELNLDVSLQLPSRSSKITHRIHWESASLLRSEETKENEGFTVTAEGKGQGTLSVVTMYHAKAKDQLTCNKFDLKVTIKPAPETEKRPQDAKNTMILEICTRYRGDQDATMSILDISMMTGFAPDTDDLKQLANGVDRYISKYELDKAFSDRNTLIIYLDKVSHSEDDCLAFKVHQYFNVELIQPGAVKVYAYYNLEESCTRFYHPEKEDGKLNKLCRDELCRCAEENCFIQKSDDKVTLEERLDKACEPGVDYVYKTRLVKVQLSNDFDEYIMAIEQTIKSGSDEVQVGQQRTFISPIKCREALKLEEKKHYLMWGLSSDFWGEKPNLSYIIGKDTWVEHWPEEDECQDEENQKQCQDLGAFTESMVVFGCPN
In the case of B1, the EC50 of hC3 cleavage turned out to be 5.92 nM.

For B2, the EC50 of hC3 cleavage amounted to 169 nM.

Take B3: the EC50 hC3 cleavage was 42.2 nM.

The molecule B4 registered an EC50 hC3 cleavage of 2400 nM.

B5: the EC50 hC3 cleavage stood at 256 nM.

Molecule B6 came in with an EC50 hC3 cleavage of 905 nM.

As for B7, the EC50 hC3 cleavage amounted to 47.8 nM.

As to B8, the EC50 hC3 cleavage came to 13 nM.

B9 registered an EC50 hC3 cleavage of 52.8 nM.

In the case of B10, the EC50 hC3 cleavage is 860 nM.

B11: the EC50 hC3 cleavage was 49.4 nM.

B12: the EC50 hC3 cleavage was 524 nM.

As for B13, the EC50 hC3 cleavage was 107 nM.

B14 displayed an EC50 hC3 cleavage of 159 nM.

B15 came in with an EC50 hC3 cleavage of 84.4 nM.

Molecule B16 came in with an EC50 hC3 cleavage of 36.8 nM.

For B17, the EC50 hC3 cleavage was 3670 nM.

B18 registered an EC50 hC3 cleavage of 108 nM.

B19: the EC50 hC3 cleavage came out at 155 nM.

The molecule B20 gave an EC50 hC3 cleavage of 131 nM.

Turning to B21, the EC50 hC3 cleavage is 401 nM.

The molecule B22 returned an EC50 hC3 cleavage of 45.6 nM.

In turn, B23 registered an EC50 hC3 cleavage of 34 nM.

The molecule B24 returned an EC50 hC3 cleavage of 105 nM.

B25 displayed an EC50 hC3 cleavage of 97.7 nM.

Turning to B26, the EC50 hC3 cleavage stood at 88 nM.

For the molecule B27, the EC50 hC3 cleavage amounted to 74.3 nM.
